Experimental data: US7038020 (ZLB BIOPLASMA, dated 2006)
Changes are numbered by the printed parent chain.

B1: Fab clone LD1/2-6-3 (Fab, V domains shown)
VH: QVKLLESGGGVVQPGGSLRVACVASGFTFRNFGMHWVRQAPGKGLEWVAFIWFDASNKGYGDSVKGRFTVSRDNSKNTLYLQMNGLRAEDTAVYYCAREKAVRGISRYNYYMDVWGKGTTVTVSS
VL: VMTQSPSSLSASVGDRVTITCRASQSIIRYLNWYQHKPGKAPKLLIHTASSLQSGVPSRFSGSVSGTDFTLTISSLQPEDFATYYCQQSYTTPYTFGQGTKLQIK
B2: Fab clone LD1/2-6-33 (Fab, V domains shown)
VH: B1 VH
VL: B1 VL with S8F, T48A
B3: Fab clone LD2-14 (Fab, V domains shown)
VH: B1 VH
VL: VMTQSPSSLSASVGDRVTITCRASQSIINNLNWYQQKPGKAPELLIYAASSLQSGVPSRFRGSGSGRDFTLTVTSLQPEDFATYYCQQSYSTLWTFGQGTKVEIK
notes: human soluble Fab from pComb3 in E. coli
B4: Fab clone LD1-40 (Fab, V domains shown)
VH: QVKLLESGGGVVQPGRSLRLSCIASGFTLRNYAMHWVRQAPGKGLEWVAGIWFDGSNKNYADSVKGRFTISRDNSKNTLYLQLNSLRDEDTAVYYCARERAARGISRFYYYMDVWGKGTTVTVSP
VL: VMTQSPSSLSASVGDRVTITCRASQSIRSHLNWYQQKPGKAPKLLIYGASTLQSGVPSRFSGSGSGAVFTLTIASLQPEDFATYYCQESYSNPLITFGQGTRLETK
notes: as for B3
B5: Fab clone LD1-110 (Fab, V domains shown)
VH: B4 VH with Y80F, Q82H, L83M, D88A, V93T, A102I, F108Y, Y109N, P125S
VL: VMTQSPSSLSASVGDRVTITCRASQSIRSSLNWYQQKPGKAPKVLIYAASSLQSGVPSRFSGRGSGTDFTLTISSLQPEDFATYYCQQSSSSSWTFGQGTKVEIK
notes: as for B3
B6: Fab clone LD1-117 (Fab, V domains shown)
VH: QVKLLESGGGVVQPGKSLRLSCAASGFSFNSHGMHWVRQAPGKGLEWVAFIWFDGSNKYYADSVKGRFTITRDNSKNTLYLQMNSLRAEDTAVYYCARETSVRLGYSRYNYYMDVWGKGTTVTISS
VL: VMTQSPSSLSASVGDRVTITCRASQSIRSHLNWYQQKPGKAPKLLIYAASSLQGGVPSRFSGSGSGTDFTLTISSLQPEDFATYYCQQSYRAPQWTFGQGTKVEIK
notes: as for B3
B7: Fab clone LD2-11 (Fab, V domains shown)
VH: QVKLLESGGGVVQPGGSLRLSCEASGFTLRSSGMHWVRQAPGKGLEWVALIWFDGSIRSYAESVKGRFTISRDTSKNTLYLQMRSLSADDTAVYYCARDKAVRGISRYNYYMDVWGKGTTVTVSS
VL: VLTQSPSSLSASIRDRVTITCRASQNIGSYLNWYQHKPGTAPKLLIYAVSALQSGVPSRFSGSRSGTDFTLTISSLQPEDFATYYCQQSYSPPYTFGQGTNLQIK
notes: as for B3
B8: Fab clone LD1-52 (Fab, V domains shown)
VH: B7 VH with T28A
VL: VMTQSPSSLSASVGDRVTITCRASQNIIRYLNWYQQKPGKAPRLLIYGASTLQSGVPSRFSGSGSGTDFTLTISSLQPEDFATYYCQQSYRTPPFTFGPGTKVEIK
notes: as for B3
B9: Fab clone LD2-4 (Fab, V domains shown)
VH: B7 VH
VL: VMTQSPSSLSASVGDRVTITCRTSQTISRNLNWYQQKPGKAPKLLIYATSSLQSGVPSRFSGSGSGTDFTLTINSLQPEDFATYYCQQSYTTPSFGQGTKVEIK
notes: as for B3
B10: Fab clone LD1-84 (Fab, V domains shown)
VH: B7 VH
VL: VMTQSPSSLSASIGDRVTITCRASQSIIRYLNWYQHKPGKAPKLLIFAASNLQTGVPSRFSGSGSGTDFTLTISDLQPEDFATYYCQQSYSRPFTFGRGTSLDIK
notes: as for B3
B11: Fab clone LD2-17 (Fab, V domains shown)
VH: QVKLLESGGGVVQPGGSLRLSCVASGFTFRSYGMHWVRQAPGKGLEWVAFIWFDGSNKGYVDSVKGRFTISRDNSKNTLYLQMKSLRAEDTAVYYCAREKALRGISRYNYYLDVWGKGTTVTVSS
VL: VMTQSPFSLSASVGDRVTITCRASQNIRSFLSWYQQKPGTAPKLLIYAASRLQSGVPSRFSGSGSGTDFTLTISTLQPEDFATYYCQQSYSAPWTFGQGTKLEIK
notes: as for B3
B12: Fab clone LD2-5 (Fab, V domains shown)
VH: B11 VH with V11L, T78M, K84N, T119A
VL: VMTQSPSSLSASIGDRVTITCRASQSVTRSLNWYQQKPGKAPRLLIFAASTLQSGVPSRFSGSGSGTDFTLTISSLQPEDFGTYYCQQNYRTPQWTFGQGTKVEIK
notes: as for B3
B13: Fab clone LD2-20 (Fab, V domains shown)
VH: B11 VH with F29S
VL: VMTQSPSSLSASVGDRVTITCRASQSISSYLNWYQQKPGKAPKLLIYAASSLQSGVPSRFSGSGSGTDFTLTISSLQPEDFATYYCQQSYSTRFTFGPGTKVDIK
notes: as for B3

biological target: T1, Rhesus negative rbc, phenotype ccddee (Rhesus c and e antigens, no D) (human, UniProt P18577 2-417); test: indirect haemagglutination, rbc ccddee
T1 construct: whole, on cells; the thing tested is the whole red cell; also called rr
T1 sequence (looked up): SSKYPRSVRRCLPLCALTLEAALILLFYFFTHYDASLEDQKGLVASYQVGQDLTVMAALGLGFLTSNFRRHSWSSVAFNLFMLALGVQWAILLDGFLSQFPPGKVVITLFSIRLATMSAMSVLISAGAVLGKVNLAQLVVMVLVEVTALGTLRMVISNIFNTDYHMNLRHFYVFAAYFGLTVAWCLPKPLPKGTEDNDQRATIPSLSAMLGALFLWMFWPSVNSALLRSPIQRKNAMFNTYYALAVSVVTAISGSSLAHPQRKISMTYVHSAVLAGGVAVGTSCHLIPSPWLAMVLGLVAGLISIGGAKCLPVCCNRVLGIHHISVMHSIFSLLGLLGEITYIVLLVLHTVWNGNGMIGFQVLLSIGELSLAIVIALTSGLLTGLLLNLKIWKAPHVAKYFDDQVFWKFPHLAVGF

Question: Does B1 bind?
Answer: no binding

Question: Does B2 bind?
Answer: no binding

biological target: T1, Rhesus negative rbc, phenotype ccddee …; test: indirect haemagglutination, Fab fragment, rbc rr

Question: Does B3 bind?
Answer: no binding

biological target: T2, Rhesus D antigen (human, UniProt Q02161 2-417); test: haemagglutination, rbc
T2 construct: whole, on cells; R1R1 cells also carry C and e; also called RhD; on rbc R1R1 (CDe/CDe, CCDDee)
T2 sequence (looked up): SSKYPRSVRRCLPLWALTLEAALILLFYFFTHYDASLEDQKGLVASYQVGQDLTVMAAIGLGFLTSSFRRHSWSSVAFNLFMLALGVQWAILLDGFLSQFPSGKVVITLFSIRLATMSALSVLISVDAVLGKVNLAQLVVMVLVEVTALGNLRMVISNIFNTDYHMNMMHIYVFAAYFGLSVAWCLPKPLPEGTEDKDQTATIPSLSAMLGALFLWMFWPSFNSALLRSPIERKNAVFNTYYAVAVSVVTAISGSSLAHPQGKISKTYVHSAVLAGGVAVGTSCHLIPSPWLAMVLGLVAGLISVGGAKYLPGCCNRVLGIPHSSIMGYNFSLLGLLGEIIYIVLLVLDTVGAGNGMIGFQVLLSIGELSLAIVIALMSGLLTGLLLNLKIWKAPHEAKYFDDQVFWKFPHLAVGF

Question: Does B4 bind?
Answer: binds

Question: Does B5 bind?
Answer: binds

Question: Does B6 bind?
Answer: binds

Question: Does B7 bind?
Answer: binds

Question: Does B8 bind?
Answer: binds

Question: Does B9 bind?
Answer: binds

Question: Does B10 bind?
Answer: binds

Question: Does B11 bind?
Answer: binds

Question: Does B12 bind?
Answer: binds

Question: Does B13 bind?
Answer: binds

biological target: T2, Rhesus D antigen; test: indirect haemagglutination, Fab fragment, rbc R1R1

Question: Does B3 bind?
Answer: binds

biological target: T2, Rhesus D antigen; test: indirect haemagglutination, rbc CCDDee

Question: Does B1 bind?
Answer: binds

Question: Does B2 bind?
Answer: binds
